First the molecules themselves.
B1: Hu1573-1 (antibody, V domains shown)
VH: EVQLVESGGGLVQPGGSLRLSCAASGFTFSNYYLNWVRQAPGKGLEWVGDIRLKSNNYEKHYAESVKGRFTISRDDSKNSLYLQMNSLKTEDTAVYYCAREGDYFDYWGQGTTVTVSS
VL: DIVLTQTPLSLSVTPGQPASISCRASESVDSFGATFMHWYLQKPGQPPQLLIYLASNLESGVPDRFSGSGSRTDFTLKISRVEAEDVGVYYCQQNNEDPYTFGQGTKLEIKR
notes: Humanized IgG, human gamma 1 / kappa constant regions by vectors pCP-hCg1 and pCP-hck; also called H1573VH.1 + H1573Vk.2C
B2: Hu1573-17 (antibody, V domains shown)
VH: B1 VH with G49A, N79S, L81V, A99I
VL: B1 VL with L4M
notes: Humanized IgG, human gamma 1 / kappa constant regions by vectors pCP-hCg1 and pCP-hck; also called H1573VH.1F + H1573Vk.2B
B3: Hu1573-5 (antibody, V domains shown)
VH: B1 VH with L81V, A99I
VL: B1 VL with L4M
notes: Humanized IgG, human gamma 1 / kappa constant regions by vectors pCP-hCg1 and pCP-hck; also called H1573VH.1B + H1573Vk.2B
B4: Hu1573-2 (antibody, V domains shown)
VH: B1 VH with A99I
VL: B1 VL
notes: Humanized IgG, human gamma 1 / kappa constant regions by vectors pCP-hCg1 and pCP-hck; also called H1573VH.1A + H1573Vk.2C
B5: Hu1573-10 (antibody, V domains shown)
VH: B1 VH with N79S, A99I
VL: B1 VL with R72G
notes: Humanized IgG, human gamma 1 / kappa constant regions by vectors pCP-hCg1 and pCP-hck; also called H1573VH.1D + H1573Vk.2A
B6: Hu1573-8 (antibody, V domains shown)
VH: B1 VH with G49A, A99I
VL: B1 VL with L4M
notes: Humanized IgG, human gamma 1 / kappa constant regions by vectors pCP-hCg1 and pCP-hck; also called H1573VH.1C + H1573Vk.2B
B7: Hu1573-16 (antibody, V domains shown)
VH: B1 VH with G49A, N79S, L81V, A99I
VL: B1 VL with R72G
notes: Humanized IgG, human gamma 1 / kappa constant regions by vectors pCP-hCg1 and pCP-hck; also called H1573VH.1F + H1573Vk.2A

Substitutions are numbered along the chain they refer to.

What is called Kd is the free concentration of one partner at which half of the binding sites on the other are occupied at equilibrium, for simple one-to-one binding. For orientation: koff means the rate constant with which the complex falls apart. Usually kon stands for the rate constant with which the complex forms. Low values mean slower complex formation, high ones faster complex formation. Usually EC50 stands for the concentration needed to bring the measured effect to its halfway point. Higher therefore signals a less potent agent.

In the first assay the target is T1, human activated protein C (human, UniProt P04070 43-197; P04070 212-461).
T1 construct: also called human aPC; human APC
As to the kind of experiment: SPR (Biacore), 1:1 binding model.
Consider B1, for which binding was put at a Kd of 3.8 nM, the koff worked out at 0.00554 s⁻¹ and the kon was determined as 1.46e+06 M⁻¹ s⁻¹.
For B2, the Kd stood at 5.75 nM, the koff worked out at 0.00833 s⁻¹ and the kon was 1.45e+06 M⁻¹ s⁻¹.
B3 showed a Kd of 4.16 nM, a koff of 0.0064 s⁻¹ and a kon of 1.54e+06 M⁻¹ s⁻¹.
Consider B4, for which the Kd came out at 4.61 nM, the koff stood at 0.00624 s⁻¹ and the on-rate (kon) stood at 1.35e+06 M⁻¹ s⁻¹.
On to B5, for which the Kd was found to be 4.38 nM, the koff worked out at 0.00636 s⁻¹ and the kon is 1.45e+06 M⁻¹ s⁻¹.
B6 showed a Kd of 4.03 nM, a koff of 0.006 s⁻¹ and an association rate constant (kon) of 1.49e+06 M⁻¹ s⁻¹.
B7 returned a Kd of 4.52 nM, a koff of 0.00643 s⁻¹ and a kon of 1.42e+06 M⁻¹ s⁻¹.

The next assay deals with T2, cyno activated protein C (cyno (monkey)).
T2 construct: also called cyno aPC; cyno APC
As to the kind of experiment: SPR (Biacore), 1:1 binding model. In general terms: In SPR one partner is held on a chip, and binding of the other changes the refractive index at the surface.
For B1, binding was characterised by a dissociation constant (Kd) of 16.7 nM, the koff was found to be 0.00402 s⁻¹ and the kon came out at 240000 M⁻¹ s⁻¹.
B2 displayed a Kd of 15.6 nM, an off-rate (koff) of 0.0042 s⁻¹ and a kon of 269000 M⁻¹ s⁻¹.
In turn, B3 showed a Kd of 14.5 nM, a koff of 0.00293 s⁻¹ and a kon of 202000 M⁻¹ s⁻¹.
The molecule B4 had a Kd of 16.4 nM, a koff of 0.00384 s⁻¹ and a kon of 235000 M⁻¹ s⁻¹.
On the same counts, the results for B5 are 11 nM, 0.00479 s⁻¹ and 434000 M⁻¹ s⁻¹.
B6 came in with a Kd of 12.3 nM, a koff of 0.00447 s⁻¹ and a kon of 363000 M⁻¹ s⁻¹.
Turning to B7, the Kd came to 15.8 nM, the koff turned out to be 0.00373 s⁻¹ and the kon worked out at 236000 M⁻¹ s⁻¹.

The next assay concerns the target T1, human activated protein C. As to the kind of experiment: SPR (Biacore).
B1 gave a Kd below 5 nM.
In turn, B3 yielded a Kd below 5 nM.
In turn, B4 had a Kd below 5 nM.
B5 showed a Kd below 5 nM.
The same measure, in the same setting: in the case of B6 it was below 5 nM.

A further assay has as its target T1, human activated protein C. As to the kind of experiment: ELISA, coated antigen. (In an ELISA, binding on a coated surface is turned into a signal by an enzyme label.)
Turning to B1, the response was half-maximal at 0.369 nM (EC50).
In the case of B2, the EC50 is 0.627 nM.
The same measure, in the same setting: as for B3, the figure is 0.552 nM.
For B4, the EC50 was 0.265 nM. Compared with the last molecule, the EC50 is about 2.1-fold lower.
B5 displayed a 50% effective concentration (EC50) of 0.575 nM. This EC50 is about 2.2-fold higher than that of the molecule before.
B6 showed an EC50 of 0.697 nM. The EC50 values of the last two molecules are within 1.5-fold of each other.
Molecule B7 came in with an EC50 of 0.233 nM.

The target in another assay is T2, cyno activated protein C. Nature of the assay: ELISA, coated antigen.
In turn, B1 showed an EC50 of 0.865 nM.
Turning to B2, the EC50 is 1.21 nM.
Molecule B3 returned an EC50 of 1.03 nM. The EC50 values of the last two molecules are within 1.5-fold of each other.
On to B4, for which the EC50 was found to be 0.774 nM.
Turning to B5, the EC50 is 0.68 nM.
Same read-out and setting: in the case of B6 it was 0.713 nM; in that of B7, 1.23 nM.

The target in the next assay is T3, human Protein C (human, UniProt P04070 43-461).
T3 construct: Zymogen used as negative control in the ELISA; also called human PC; hPC
As to the kind of experiment: ELISA, coated antigen.
For the molecule B1, the binding result was “no binding (tested: 20 nM)”.
For B2, the binding result is “no binding (tested: 20 nM)”.
With B3, the binding result is “no binding (tested: 20 nM)”.
Same read-out and setting: as for B4, the entry is “no binding (tested: 20 nM)”.
Take B5: the binding result was “no binding (tested: 20 nM)”.
For B6, the binding result was “no binding (tested: 20 nM)”.
As for B7, the binding result is recorded as “no binding (tested: 20 nM)”.

(Values after patent USRE49099 (Bayer, dated 2022).)
